This is an account of results in patent publication US20220363718A1 (Bicycle, published 2022).

The labels stand for the following.
B1: Example 105 (peptide)
peptide: CQWLXDCWRGXC
modifications: not fully specified; N-term acetyl; CQWL[3-ClPhe]DCWRG[4-FPhe]C as printed; 3 Cys on TATA
B2: Example 43 (peptide)
peptide: CQWLFDCWRGXC
modifications: not fully specified; N-term acetyl; CQWLFDCWRG[4-FPhe]C as printed; 3 Cys on TATA
B3: Example 23 (peptide)
peptide: CQWLENCWRGXC
modifications: not fully specified; N-term acetyl; CQWLENCWRG[4-FPhe]C as printed; 3 Cys on TATA
B4: Example 126 (peptide)
peptide: CAWLEDCWRGXC
modifications: not fully specified; N-term acetyl; C[dA]WLEDCWRG[4-FPhe]C as printed; 3 Cys on TATA

*1 amine or outer side, *2 acyl side, *3 side chain or, on linkers, in order; H or OH if unused. Bridges are numbered along the chain shown (N, C = ends). Where no end group is shown, it is not given here. [ ]: non-standard residue; d: D form. Phe(4-OMe) = 4-methoxy-phenylalanine (4-MeOPhe) = O-methyl-tyrosine, COc1ccc(C[C@H](N[*:1])C(=O)[*:2])cc1; TATA = O=C(CC[*:1])N1CN(C(=O)CC[*:2])CN(C(=O)CC[*:3])C1; Abu(4,4,4-F3) = N[C@@H](CC(F)(F)F)C(=O)O

T1 sequence (chain, as listed by the source limits assumed): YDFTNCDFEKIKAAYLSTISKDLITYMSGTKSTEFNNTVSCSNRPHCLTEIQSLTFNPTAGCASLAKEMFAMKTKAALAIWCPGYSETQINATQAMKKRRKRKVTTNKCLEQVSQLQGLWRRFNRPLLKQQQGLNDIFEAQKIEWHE

This assay addresses T1, Biotinylated human TSLP (human, biotinylated).
T1 construct: also called hTSLP; thymic stromal lymphopoietin
Put plainly: SPR, biotinylated hTSLP on streptavidin chip. For orientation: SPR reads the build-up and loss of mass on a sensor chip optically.
As usually defined, the Kd is the constant that tells how readily two partners part at equilibrium. The low end stands for higher affinity, the high end for lower affinity. For CQWXEDCWRGFC (N-term acetyl; CQW[M(O)]EDCWRGFC as printed; 3 Cys on TATA) [Example 147], the Kd was found to be 940 nM.

Consider CQWLEDCWXGFC (N-term acetyl; CQWLEDCW[Can]GFC as printed; 3 Cys on TATA) [Example 131], for which the Kd was determined as 400 nM.

CQWLEDCWXGFC (not fully specified; CQWLEDCW[Dap]GFC as printed; 3 Cys on TATA) [Example 156]: binding was put at a Kd of 3300 nM.

The molecule ACRDLDPWTCSSWWLCSESVHTA (linker 2-10-16 via TATA) [Example 175] came in with a Kd of 240 nM.

For the molecule ACTELDPWTCETWWLCA (linker 2-10-16 via TATA; not fully specified (C-terminus)) [Example 163], the Kd was determined as 230 nM.

AHPCADLDPWTCPNWWLCA (linker 4-12-18 via TATA; not fully specified (C-terminus)) [Example 165] returned a Kd of 30 nM.

With CHWLENCWXGFC (not fully specified; N-term acetyl; CHWLENCW[Dap]GFC as printed; 3 Cys on TATA) [Example 159], the affinity, expressed as Kd, was 5600 nM.

For the molecule CQWLEDCWRGXC (N-term acetyl; CQWLEDCWRG[2ThienylA]C as printed; 3 Cys on TATA) [Example 135], the Kd worked out at 490 nM.

Consider ACESLDPWSCPVWWRCA (linker 2-10-16 via TATA; not fully specified (C-terminus)) [Example 161], for which the affinity, expressed as Kd, was 890 nM.

Regarding ACEWLEDCWKGFCHSE (linker 2-8-13 via TATA) [Example 136], the affinity, expressed as Kd, was 520 nM.

The molecule Ac-CQWLEDCWAGFC (linker 1-7-12 via TATA) [Example 149] came in with a Kd of 1100 nM.

CQXLEDCWXGXC (N-term acetyl; CQ[ButG]LEDCW[ButG]G[4-FPhe]C as printed; 3 Cys on TATA) [Example 145] displayed a Kd of 900 nM.

CQWLEDCWRGXC (N-term acetyl; CQWLEDCWRG[3-CNPhe]C as printed; 3 Cys on TATA) [Example 130]: the Kd came to 400 nM.

CQWLQDCFRGXC (N-term acetyl; CQWLQDCFRG[4-FPhe]C as printed; 3 Cys on TATA) [Example 118] came in with a Kd of 250 nM.

CQWLEDCWXGFC (not fully specified; N-term acetyl; CQWLEDCW[Cit]GFC as printed; 3 Cys on TATA) [Example 104] showed a Kd of 180 nM.

CQWLEDCWRGXC (N-term acetyl; CQWLEDCWRG[3-BrPhe]C as printed; 3 Cys on TATA) [Example 143] showed a Kd of 750 nM.

With RENCRWLDDCWQGFCA (linker 4-10-15 via TATA) [Example 117], binding was characterised by a dissociation constant (Kd) of 250 nM.

For ACTDLDPWTCNSWWLCAGD (linker 2-10-16 via TATA; not fully specified (C-terminus)) [Example 169], the affinity, expressed as Kd, was 290 nM.

For the molecule ACKDLDPWTCSSWWECAPN (linker 2-10-16 via TATA; not fully specified (C-terminus)) [Example 167], binding was put at a Kd of 170 nM.

In the case of Ac-CQWLEDCWRG[Phe(4-OMe)]C (linker 1-7-12 via TATA) [Example 142], binding was put at a Kd of 710 nM.

Ac-CQW[Abu(4,4,4-F3)]EDCWRGFC (linker 1-7-12 via TATA; not fully specified (C-terminus)) [Example 111] displayed a Kd of 200 nM.

As to ACRDLDPWTCSSWWLCSSDTTDA (linker 2-10-16 via TATA) [Example 176], the Kd is 300 nM.

Molecule ACNWLEDCWHGFCHEE (linker 2-8-13 via TATA; not fully specified (C-terminus)) [Example 125] showed a Kd of 300 nM.

CQWLEDCWRGFCDTSTHS (linker 1-7-12 via TATA; not fully specified (C-terminus)) [Example 128] had a Kd of 380 nM.

Molecule B1 came in with a Kd of 180 nM.

CWWLXDCWRGXC (N-term acetyl; CWWL[3-ClPhe]DCWRG[4-FPhe]C as printed; 3 Cys on TATA) [Example 144] returned a Kd of 860 nM.

For the molecule ACRDLDPWTCEEWWLCAHP (linker 2-10-16 via TATA) [Example 170], binding was characterised by a dissociation constant (Kd) of 170 nM.

Turning to ACFWLEDCWRGYCETA (linker 2-8-13 via TATA) [Example 138], the affinity, expressed as Kd, was 520 nM.

Molecule CQWLEDCWXGFC (not fully specified; CQWLEDCW[Cit]GFC as printed; 3 Cys on TATA) [Example 102] came in with a Kd of 170 nM.

As to CHWLEDCWRGXC (N-term acetyl; CHWLEDCWRG[4-FPhe]C as printed; 3 Cys on TATA) [Example 19], the Kd was found to be 6.7 nM.

B2 had a Kd of 30 nM.

CQWLFDCWRGXC (N-term acetyl; CQWLFDCWRG[4-FPhe]C as printed; C-terminal -COOH; 3 Cys on TATA) [Example 39] displayed a Kd of 21 nM.

The molecule B3 showed a Kd of 9.9 nM.

Regarding B4, the Kd is 310 nM.

Molecule CQWIEDCWRGXC (N-term acetyl; CQWIEDCWRG[4-FPhe]C as printed; 3 Cys on TATA) [Example 57] came in with a Kd of 51 nM.

On to ACEWLEDCWRGFCA (linker 2-8-13 via TATA; not fully specified (C-terminus)) [Example 101], for which the Kd was 160 nM.

Ac-CDWLEDCWRGFCTTS (linker 1-7-12 via TATA; not fully specified (C-terminus)) [Example 100] displayed a Kd of 160 nM.

Molecule ACDWLDDCWKGFCA (linker 2-8-13 via TATA) [Example 141] came in with a Kd of 600 nM.

ACRDLDPWTCPTWWTCYDE (linker 2-10-16 via TATA; not fully specified (C-terminus)) [Example 168]: the Kd was found to be 290 nM.

The molecule CQWLEDCWXGFC (not fully specified; N-term acetyl; CQWLEDCW[Dap]GFC as printed; 3 Cys on TATA) [Example 155] had a Kd of 3200 nM.
